Test results published in patent US20190185898A1 (UNIVERSITY OF MARYLAND BALTIMORE COUNTY, published 2019).

Target: T1, core-fucosylated complex type glycoform of rituximab (30)
T1 construct: Obtained from 28 by AlfC E274A catalysed core fucosylation; also called fucosylated rituximab (30); core fucosylated antibody (30)
Assay: ELISA, glycoprotein coated, AAL-biotin in serial dilution
Protocol: The glycoprotein (20, 21, 28 or 30) (10 μg/ml) in a phosphate buffer (pH 7.5) was coated onto a 96-well plate (UltraCruz®) at 4° C. for overnight. After wash twice, 2% bovine serum albumin in PBS containing Tween® 20 (PBST buffer) was added to block the plate for 2 h. Subsequently, after washed twice again, a serial dilution of AAL-biotin ranging from 0.1 μM to 1000 μM in PBST buffer was added and the plate was incubated for 1 h. After washing, peroxidase streptavidin (2 μg/mL) (Jackson ImmunoResearch Inc.) was added and incubated for 1 h. Finally, 100 μL of substrate, 3, 3′, 5, 5′-tetramethylbenzidine was added for signal development. The reaction was stopped by the adding 100 μL of 20% sulfuric acid (v/v). The absorbance at 450 nm was measured using SpectraMax M5 microplate reader (Molecular Devices). For the binding of the N-glycans, the Fmoc-labeled N-glycans released from 20, 21, 28 and 30 (1 μg/ml) were coated on the plate and the ELISA analysis was performed in the same manner as that of the glycoproteins.

EC50: 15 µM
fold higher affinity than core-fucosylated RNase B (21): ~17 fold
B1: Aleuria aurantia lectin (AAL) (other, UniProt P18891 2-313, looked up)
chain: PTEFLYTSKIAAISWAATGGRQQRVYFQDLNGKIREAQRGGDNPWTGGSSQNVIGEAKLFSPLAAVTWKSAQGIQIRVYCVNKDNILSEFVYDGSKWITGQLGSVGVKVGSNSKLAALQWGGSESAPPNIRVYYQKSNGSGSSIHEYVWSGKWTAGASFGSTVPGTGIGATAIGPGRLRIYYQATDNKIREHCWDSNSWYVGGFSASASAGVSIAAISWGSTPNIRVYWQKGREELYEAAYGGSWNTPGQIKDASRPTPSLPDTFIAANSSGNIDISVFFQASGVSLQQWQWISGKGWSIGAVVPTGTPAGW
modifications: biotin label (AAL-biotin), site not stated
notes: Lectin that recognises the α1,6-fucosylated glycan; Added in serial dilution (0.1 µM to 1000 µM) to the coated glycoprotein; also called AAL-biotin
